These are literature values, as cited in article PMC7072864.

The data set deals with EAG1 CNBHD CNBHD (Mus musculus) (UniProt Q60603).

By Kd is commonly meant the equilibrium constant for the complex coming apart. With “EAG1 PAS domain PAS (from UniProt Q60603)”, the Kd is 13 µM.
